Each block holds one molecule with its values, some of them ahead of it.
Tests used:
[1] = target: CD73 on cynomolgus macaques CD3+CD8+ T cells (cynomolgus macaques); test: flow cytometry on cynomolgus macaque PBMC, CD3+CD8+ T cells, donor 1132F
[2] = target: CD73 on cynomolgus macaques CD3+CD8+ T cells (cynomolgus macaques); test: flow cytometry on cynomolgus macaque PBMC, CD3+CD8+ T cells, donor 1300M
[3] = target: T1, human CD73 on the cell surface (tumor cells endogenously expressing human CD73; CHOS-human CD73) (human, UniProt P21589 27-549); test: cell-based or functional assay
T1 sequence: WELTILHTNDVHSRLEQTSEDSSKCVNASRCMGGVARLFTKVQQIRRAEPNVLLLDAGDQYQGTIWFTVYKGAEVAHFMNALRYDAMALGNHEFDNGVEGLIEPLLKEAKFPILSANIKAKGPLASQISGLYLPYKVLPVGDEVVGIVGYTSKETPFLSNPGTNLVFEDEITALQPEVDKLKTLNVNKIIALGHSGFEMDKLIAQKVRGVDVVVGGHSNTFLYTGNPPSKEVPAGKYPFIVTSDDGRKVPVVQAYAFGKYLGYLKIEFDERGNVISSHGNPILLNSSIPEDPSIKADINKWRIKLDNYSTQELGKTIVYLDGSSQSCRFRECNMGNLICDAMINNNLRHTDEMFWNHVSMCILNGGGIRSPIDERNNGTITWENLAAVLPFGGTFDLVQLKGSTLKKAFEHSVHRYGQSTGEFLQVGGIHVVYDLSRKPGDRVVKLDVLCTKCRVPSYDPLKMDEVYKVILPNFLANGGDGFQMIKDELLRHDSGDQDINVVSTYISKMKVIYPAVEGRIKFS

[4] = target: T1, human CD73 on the cell surface (tumor …); test: flow cytometry, MFI, A375 cells expressing human CD73
Procedure: (§1) 500,000 CD73-expressing cells (see Example 2) were placed in 100 μL of FACS buffer (PBS+2% FBS)/well for later use in a round-bottom low adsorption 96-well plate. The antibody sample was subjected to serial 3-fold dilutions at 12 points by diluting ½ of the total volume (100 μL) in 200 μL of FACS buffer. 100 μL of the diluted antibody was added to each well of the cell plate, 100 μL of FACS buffer was added to the corresponding negative control well, and incubation was performed at 4° C. for 1 hour. […] After staining, the supernatant was removed by centrifugation, washing was performed twice with FACS buffer, and 100 μL of FACS buffer was added to each well to resuspend the cells, and then reading was performed on flow cytometry. The cells in the plate were measured using a flow cytometer (BD, model ACCURI C6 PLUS). During the measurement, the cells were first gated according to FCS and SSC, and then analyzed by the green fluorescence channel (FITC) corresponding to the secondary antibody and SSC. GraphPad was used for data analysis, wherein the abscissa indicated the logarithm of antibody concentration, the ordinate indicated mean fluorescence intensity, and the EC50 value of the anti-CD73 antibody was obtained by curve fitting.

[5] = target: T1, human CD73 on the cell surface (tumor …); test: flow cytometry, MFI, MDA-MB-231 cells expressing human CD73
Procedure: as §1

[6] = target: T2, recombinant human CD73 protein (Baiying Bio) (human, UniProt P21589 27-549); test: SPR, Biacore T200 at 25 C, antibody captured on Protein A chip, CD73 protein as analyte, 1:1 model
T2 construct: Bought protein; also called soluble recombinant CD73; soluble human CD73 protein
T2 sequence: T1 sequence
Procedure: The antibody was diluted with running buffer 1*HBS-EP+ to 1 μg/ml, and was captured onto the chip surface (Protein A chip, GE, Cat #29127556) at a flow rate of 10 μl/min for 30 s. Then, a series of concentrations of CD73 protein (Baiying Bio, recombinant human CD73 protein) were injected into antibody channel at a flow rate of 30 μl/min, for association of 180 s, followed by dissociation for 900 s. 10 mM pH 1.5 Gly-HCl was used for regeneration. The sensorgram data was fitted using a 1:1 dynamic binding model.

[7] = target: T2, recombinant human CD73 protein (Baiying …); test: ELISA, 1 ug/ml recombinant human CD73 coated, HRP-coupled anti-IgG Fc secondary antibody, OD450
Procedure: 1 μg/ml recombinant human CD73 protein (Baiying Bio, recombinant human CD73 protein) was coated on an ELISA plate in PBS for overnight at 4° C. The plate was washed 3 times with washing buffer (PBS, 0.05% Tween-20), and non-specific sites were blocked by adding 200 μl/well PBS+2% BSA. 100 μL of the anti-CD73 antibody in a dose range of gradient dilution was added to the ELISA plate coated with the antigen, and incubated at 37° C. for 1 h. The plate was washed 3 times in washing buffer, and HRP-coupled goat anti-human or goat anti-mouse IgG Fc fragment secondary antibody was added for 1 h at room temperature to detect the captured anti-CD73 antibody. […] The enzymatic reaction was stopped by adding 1M sulfuric acid solution, and the light absorption was measured at 450 nm. The graph was plotted with the absorbance value on the ordinate and the log value of antibody concentration on the abscissa, and the EC50 was calculated using GraphPad Prism software.

MFI FC (fold change of mean fluorescence intensity) [1]: 1.2 fold
MFI FC (fold change of mean fluorescence intensity) [2]: 1 fold
Molecule: Isotype control (IgG1-TM) (antibody)

IC50 of antibody inhibiting enzymatic activity of CD73 on surface of A375 cells (AMP/ATP CellTiter-Glo) [3]: 0.26 µg/mL
IC50 of antibody inhibiting enzymatic activity of CD73 on surface of MDA-MB-231 cells (AMP/ATP CellTiter-Glo) [3]: 1 µg/mL
EC50 [4]: 0.6 µg/mL
EC50 [5]: 0.99 µg/mL
Kd [6]: 0.21 nM
koff [6]: 6.24e-05 s⁻¹
kon [6]: 297000 M⁻¹ s⁻¹
EC50 (read off the curve) [7]: ~0.008 µg/mL
B1: humanized antibody 7002-01 (antibody, human IgG1, kappa, V domains shown)
VH: QVQLQESGPGLVKPSQTLSLTCTVSGYSITSGYDWHWIRQHPGKGLEWMGYISYSGYTDYNPSLKSRITISHDTSKNQFSLKLSSVTAADTAVYYCTRGDHSYAMDYWGQGTLVTVSS
VL: AIQMTQSHSSLSASVGDRVTITCKASQAVGTAVAWYQQKPGKSPKLLIYWASSRHTGVPSRFSGSRSGTDFTLTISSLQPEDFATYFCQQYSSYPLTFGGGTKVEIKR
